Experimental data taken from PMC11821526.

Key:
[1] = molecular target: pep3 …[X]-CONH2, X = Ile; assay: fluorescence polarisation; FBXO31–SKP1 complex (0–5 µM) titrated to fluorescein-labelled peptide (2–10 nM); 25 mM HEPES, 150 mM NaCl, pH 7.5; room temperature, 30 min; one-site fit, n = 3 parallel experiments
[2] = molecular target: pep3 …[X]-CONH2, X = His; assay: as above
[3] = molecular target: pep3 …[X]-CONH2, X = Gly; assay: as above
[4] = molecular target: pep3 …[X]-CONH2, X = Cys; assay: as above
[5] = molecular target: pep3 …[X]-CONH2, X = Tyr; assay: as above
[6] = molecular target: pep3 …[X]-CONH2, X = Lys; assay: as above
[7] = molecular target: pep3 …[X]-CONH2, X = Pro; assay: as above
[8] = molecular target: pep3 …[X]-CONH2, X = Ala; assay: as above
[9] = molecular target: pep3 …[X]-CONH2, X = Arg; assay: as above
[10] = molecular target: pep3 …[X]-CONH2, X = Glu; assay: as above
[11] = molecular target: pep3 …[X]-CONH2, X = Met; assay: as above
[12] = molecular target: pep3 …[X]-CONH2, X = Ser; assay: as above
[13] = molecular target: pep3 …[X]-CONH2, X = Val; assay: as above
[14] = molecular target: pep3 …[X]-CONH2, X = Trp; assay: as above
[15] = molecular target: pep3 …[X]-CONH2, X = Leu; assay: as above
[16] = molecular target: pep3 …[X]-CONH2, X = Thr; assay: as above
[17] = molecular target: pep3 with terminal Asn amide (…-CONH2); assay: fluorescence polarisation; FBXO31–SKP1 complex (0–5 µM) titrated against fluorescein-labelled peptides (2–10 nM); 25 mM HEPES, 150 mM NaCl, pH 7.5, room temperature, 30 min; one-site fit; constants of the highest affinity probes only approximate
[18] = molecular target: pep3 with terminal Phe amide (…-CONH2); assay: as above
[19] = molecular target: pep3 with terminal Gln amide (…-CONH2); assay: as above
[20] = molecular target: pep3 with terminal Asp amide (…-CONH2); assay: as above

| Substance | Kd [1] [nM] | Kd [2] [nM] | Kd [3] [nM] | Kd [4] [nM] | Kd [5] [nM] | Kd [6] [nM] | Kd [7] [nM] | Kd [8] [nM] | Kd [9] [nM] | Kd [10] [nM] | Kd [11] [nM] | Kd [12] [nM] | Kd [13] [nM] | Kd [14] [nM] | Kd [15] [nM] | Kd [16] [nM] | Kd [17] [nM] | Kd [18] [nM] | Kd [19] [nM] | Kd [20] [nM] |
| --- | --- | --- | --- | --- | --- | --- | --- | --- | --- | --- | --- | --- | --- | --- | --- | --- | --- | --- | --- | --- |
| FBXO31–SKP1 complex (StrepII-FBXO31.1(∆1–65) with SKP1(A2P,∆38–43,∆71–82)) (from UniProt Q5XUX0 66-539; P63208 1-163) | 32.1 | 13.2 | 137 | 19.9 | 25.9 | 93.8 | 58.2 | 54.4 | 71 | 103 | 21 | 49.6 | 43.7 | 38.2 | 41.4 | 42 |  |  |  |  |
| recombinant FBXO31–SKP1 complex (wild type) (from UniProt Q5XUX0 66-539; P63208 1-163) |  |  |  |  |  |  |  |  |  |  |  |  |  |  |  |  | 24 | 6 | 55 | 304 |
